Results on 40 sequences are retold here after paper PMC3334620.

For one data set, the target named is T1, Cin5 (Saccharomyces cerevisiae) (UniProt P40917).
T1 sequence: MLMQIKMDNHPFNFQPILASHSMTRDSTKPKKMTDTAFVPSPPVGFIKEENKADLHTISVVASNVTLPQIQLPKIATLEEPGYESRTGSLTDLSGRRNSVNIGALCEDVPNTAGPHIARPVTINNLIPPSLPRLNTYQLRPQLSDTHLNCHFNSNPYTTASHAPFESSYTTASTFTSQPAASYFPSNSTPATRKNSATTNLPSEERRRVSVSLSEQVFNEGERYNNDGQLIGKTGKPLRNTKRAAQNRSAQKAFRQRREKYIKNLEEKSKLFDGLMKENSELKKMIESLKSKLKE
The settings on record: 100 nM.
With “ACGTAAGC (double strand) [8-mer ACGTAAGC]”, the binding signal (PBM E-score (-0.5 to 0.5)) worked out at 0.483.

As to “ACGTAATA (double strand) [8-mer ACGTAATA]”, the binding signal (PBM E-score (-0.5 to 0.5)) worked out at 0.455.

“CGTAAGCA (double strand) [8-mer CGTAAGCA]” had a binding signal (PBM E-score (-0.5 to 0.5)) of 0.463.

Take “CGTAATCA (double strand) [8-mer CGTAATCA]”: the binding signal (PBM E-score (-0.5 to 0.5)) turned out to be 0.458.

For the sequence “CTTACGTA (double strand) [8-mer CTTACGTA]”, the binding signal (PBM E-score (-0.5 to 0.5)) worked out at 0.472.

“TGACATAA (double strand) [8-mer TGACATAA]” displayed a binding signal (PBM E-score (-0.5 to 0.5)) of 0.462.

On to “TGACGTAA (double strand) [8-mer TGACGTAA]”, for which the binding signal (PBM E-score (-0.5 to 0.5)) is 0.453.

Consider “TTACATAA (double strand) [8-mer TTACATAA]”, for which the binding signal (PBM E-score (-0.5 to 0.5)) was found to be 0.488.

Turning to “TTACCTAA (double strand) [8-mer TTACCTAA]”, the binding signal (PBM E-score (-0.5 to 0.5)) was found to be 0.451.

Regarding “TTATATAA (double strand) [8-mer TTATATAA]”, the binding signal (PBM E-score (-0.5 to 0.5)) worked out at 0.456.

Another data set concerns the target T2, Sko1 (Saccharomyces cerevisiae) (UniProt Q02100).
T2 sequence: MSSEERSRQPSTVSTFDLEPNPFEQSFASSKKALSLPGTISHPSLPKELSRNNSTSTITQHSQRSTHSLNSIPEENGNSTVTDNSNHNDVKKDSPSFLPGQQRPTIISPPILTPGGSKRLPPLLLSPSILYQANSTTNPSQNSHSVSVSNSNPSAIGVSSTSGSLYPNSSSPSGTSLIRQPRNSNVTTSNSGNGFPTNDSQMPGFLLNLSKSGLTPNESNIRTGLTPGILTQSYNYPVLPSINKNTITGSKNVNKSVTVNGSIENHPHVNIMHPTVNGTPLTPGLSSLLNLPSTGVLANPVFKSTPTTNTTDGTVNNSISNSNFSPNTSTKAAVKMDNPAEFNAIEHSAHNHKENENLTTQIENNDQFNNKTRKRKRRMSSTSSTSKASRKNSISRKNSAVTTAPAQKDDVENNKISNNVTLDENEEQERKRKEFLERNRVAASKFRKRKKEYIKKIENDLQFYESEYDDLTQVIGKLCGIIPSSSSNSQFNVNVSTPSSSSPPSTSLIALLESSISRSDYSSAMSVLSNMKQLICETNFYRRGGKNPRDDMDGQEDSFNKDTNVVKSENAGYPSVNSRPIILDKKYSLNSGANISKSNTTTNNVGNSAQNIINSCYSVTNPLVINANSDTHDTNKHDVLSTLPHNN
The following applies: 200 nM.
Regarding “ACGTAATA (double strand) [8-mer ACGTAATA]”, the binding signal (PBM E-score (-0.5 to 0.5)) was determined as 0.493.

“TGACGTAA (double strand) [8-mer TGACGTAA]” displayed a binding signal (PBM E-score (-0.5 to 0.5)) of 0.498.

The next data set concerns the target T3, Ybr033w (Saccharomyces cerevisiae) (UniProt P38073).
T3 sequence: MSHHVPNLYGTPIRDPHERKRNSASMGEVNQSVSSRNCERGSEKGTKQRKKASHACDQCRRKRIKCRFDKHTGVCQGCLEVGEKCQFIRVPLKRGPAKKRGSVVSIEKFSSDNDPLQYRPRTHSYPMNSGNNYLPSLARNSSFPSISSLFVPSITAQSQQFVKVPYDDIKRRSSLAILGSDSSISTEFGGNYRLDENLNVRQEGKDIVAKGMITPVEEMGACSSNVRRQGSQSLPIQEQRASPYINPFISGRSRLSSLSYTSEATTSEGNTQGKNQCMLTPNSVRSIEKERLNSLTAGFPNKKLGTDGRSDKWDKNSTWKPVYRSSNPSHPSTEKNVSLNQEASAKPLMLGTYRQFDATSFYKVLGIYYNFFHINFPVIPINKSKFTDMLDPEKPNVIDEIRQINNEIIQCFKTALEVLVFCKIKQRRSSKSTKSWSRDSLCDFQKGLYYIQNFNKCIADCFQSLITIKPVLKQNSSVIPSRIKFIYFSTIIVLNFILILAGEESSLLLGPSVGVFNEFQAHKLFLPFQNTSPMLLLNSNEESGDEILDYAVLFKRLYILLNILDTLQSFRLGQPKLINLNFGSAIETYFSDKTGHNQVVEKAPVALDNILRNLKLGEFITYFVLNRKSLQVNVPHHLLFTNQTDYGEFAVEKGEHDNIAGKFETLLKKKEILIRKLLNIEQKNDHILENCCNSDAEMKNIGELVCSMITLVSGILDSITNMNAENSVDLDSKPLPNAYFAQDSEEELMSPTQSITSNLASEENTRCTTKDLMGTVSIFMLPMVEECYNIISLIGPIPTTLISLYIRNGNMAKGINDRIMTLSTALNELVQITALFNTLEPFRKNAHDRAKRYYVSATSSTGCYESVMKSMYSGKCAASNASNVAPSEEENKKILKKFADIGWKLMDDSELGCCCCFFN
The following applies: 200 nM.
“AATGTTCC (double strand) [8-mer AATGTTCC]” yielded a binding signal (PBM E-score (-0.5 to 0.5)) of 0.471.

In turn, “AATTATCC (double strand) [8-mer AATTATCC]” returned a binding signal (PBM E-score (-0.5 to 0.5)) of 0.471.

Take “ATTAATCC (double strand) [8-mer ATTAATCC]”: the binding signal (PBM E-score (-0.5 to 0.5)) worked out at 0.486.

In turn, “ATTATTCC (double strand) [8-mer ATTATTCC]” returned a binding signal (PBM E-score (-0.5 to 0.5)) of 0.479.

Sequence “ATTGTTCC (double strand) [8-mer ATTGTTCC]” registered a binding signal (PBM E-score (-0.5 to 0.5)) of 0.484.

In turn, “ATTTATCC (double strand) [8-mer ATTTATCC]” showed a binding signal (PBM E-score (-0.5 to 0.5)) of 0.485.

Consider “ATTTTCCG (double strand) [8-mer ATTTTCCG]”, for which the binding signal (PBM E-score (-0.5 to 0.5)) came to 0.472.

On to “ATTTTTCC (double strand) [8-mer ATTTTTCC]”, for which the binding signal (PBM E-score (-0.5 to 0.5)) was determined as 0.486.

The sequence “CGGAAAAA (double strand) [8-mer CGGAAAAA]” registered a binding signal (PBM E-score (-0.5 to 0.5)) of 0.495.

Consider “CGGAACAA (double strand) [8-mer CGGAACAA]”, for which the binding signal (PBM E-score (-0.5 to 0.5)) turned out to be 0.491.

“CGGATAAA (double strand) [8-mer CGGATAAA]” came in with a binding signal (PBM E-score (-0.5 to 0.5)) of 0.488.

Take “CGGATCAA (double strand) [8-mer CGGATCAA]”: the binding signal (PBM E-score (-0.5 to 0.5)) was determined as 0.472.

Sequence “CGGATTAA (double strand) [8-mer CGGATTAA]” displayed a binding signal (PBM E-score (-0.5 to 0.5)) of 0.482.

On to “GGAAAAAA (double strand) [8-mer GGAAAAAA]”, for which the binding signal (PBM E-score (-0.5 to 0.5)) came to 0.472.

Turning to “GGAAAAAC (double strand) [8-mer GGAAAAAC]”, the binding signal (PBM E-score (-0.5 to 0.5)) stood at 0.476.

The next data set concerns the target T4, Zap1 (Saccharomyces cerevisiae) (UniProt P47043).
T4 sequence: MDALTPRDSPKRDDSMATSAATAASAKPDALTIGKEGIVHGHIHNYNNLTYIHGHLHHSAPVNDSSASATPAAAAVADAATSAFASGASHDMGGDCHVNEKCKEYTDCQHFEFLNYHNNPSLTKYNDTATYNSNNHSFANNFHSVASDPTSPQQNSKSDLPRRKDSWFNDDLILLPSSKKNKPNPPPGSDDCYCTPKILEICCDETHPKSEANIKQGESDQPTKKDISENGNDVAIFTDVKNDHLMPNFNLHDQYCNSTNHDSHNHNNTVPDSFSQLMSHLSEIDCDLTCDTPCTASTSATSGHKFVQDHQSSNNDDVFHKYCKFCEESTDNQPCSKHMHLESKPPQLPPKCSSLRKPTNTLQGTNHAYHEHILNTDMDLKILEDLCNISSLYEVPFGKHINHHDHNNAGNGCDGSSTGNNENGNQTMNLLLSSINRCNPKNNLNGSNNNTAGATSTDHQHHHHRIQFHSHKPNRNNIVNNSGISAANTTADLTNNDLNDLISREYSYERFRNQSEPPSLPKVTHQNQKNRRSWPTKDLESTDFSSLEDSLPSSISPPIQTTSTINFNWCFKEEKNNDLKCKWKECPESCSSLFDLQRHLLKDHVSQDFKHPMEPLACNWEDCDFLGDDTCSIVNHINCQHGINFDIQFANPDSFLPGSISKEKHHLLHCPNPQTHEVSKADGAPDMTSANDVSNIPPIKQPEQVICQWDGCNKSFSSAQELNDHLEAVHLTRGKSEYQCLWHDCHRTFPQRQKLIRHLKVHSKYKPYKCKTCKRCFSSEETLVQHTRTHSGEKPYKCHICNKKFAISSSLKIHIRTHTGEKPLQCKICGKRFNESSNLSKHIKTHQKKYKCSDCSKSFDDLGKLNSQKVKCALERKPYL
The following applies: 200 nM.
Sequence “AAAGGTTA (double strand) [8-mer AAAGGTTA]” registered a binding signal (PBM E-score (-0.5 to 0.5)) of 0.479.

“AAGGGTTA (double strand) [8-mer AAGGGTTA]” came in with a binding signal (PBM E-score (-0.5 to 0.5)) of 0.489.

For the sequence “AAGGTTAT (double strand) [8-mer AAGGTTAT]”, the binding signal (PBM E-score (-0.5 to 0.5)) was 0.478.

Take “AGAGGTTA (double strand) [8-mer AGAGGTTA]”: the binding signal (PBM E-score (-0.5 to 0.5)) came to 0.476.

For “AGGGGTTA (double strand) [8-mer AGGGGTTA]”, the binding signal (PBM E-score (-0.5 to 0.5)) turned out to be 0.479.

Turning to “AGGGTTAC (double strand) [8-mer AGGGTTAC]”, the binding signal (PBM E-score (-0.5 to 0.5)) was found to be 0.484.

In turn, “AGGGTTAT (double strand) [8-mer AGGGTTAT]” showed a binding signal (PBM E-score (-0.5 to 0.5)) of 0.49.

The sequence “AGGTTACC (double strand) [8-mer AGGTTACC]” registered a binding signal (PBM E-score (-0.5 to 0.5)) of 0.476.

Regarding “ATAACCCC (double strand) [8-mer ATAACCCC]”, the binding signal (PBM E-score (-0.5 to 0.5)) came out at 0.476.

For “ATAACCTC (double strand) [8-mer ATAACCTC]”, the binding signal (PBM E-score (-0.5 to 0.5)) was determined as 0.487.

As to “CAGGGTTA (double strand) [8-mer CAGGGTTA]”, the binding signal (PBM E-score (-0.5 to 0.5)) stood at 0.477.

Turning to “CATAACCC (double strand) [8-mer CATAACCC]”, the binding signal (PBM E-score (-0.5 to 0.5)) worked out at 0.482.

The sequence “CCATAACC (double strand) [8-mer CCATAACC]” gave a binding signal (PBM E-score (-0.5 to 0.5)) of 0.479.

The sequence “CGTAACCC (double strand) [8-mer CGTAACCC]” had a binding signal (PBM E-score (-0.5 to 0.5)) of 0.482.

Sequence “GGTTATGA (double strand) [8-mer GGTTATGA]” returned a binding signal (PBM E-score (-0.5 to 0.5)) of 0.48.
